The source of these data is patent US20040077572, “Transposon system and methods of use” (Regents of the University of Minnesota, published 2004).

Conditions in all cases: tags: C-terminal His6
The target of series [1] is T1, N123 (DNA-binding domain of Sleeping Beauty transposase) (synthetic (reconstructed salmonid)).
T1 chain: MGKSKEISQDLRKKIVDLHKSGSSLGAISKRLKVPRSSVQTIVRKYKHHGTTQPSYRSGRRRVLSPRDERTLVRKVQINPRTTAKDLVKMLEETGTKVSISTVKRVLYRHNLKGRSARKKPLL
The experiment in a line: EMSA; binding abolished. The source says: (§1) DNA fragments with one to three DRs were obtained by digestion of the appropriate transposon with HindIII and SacI. To determine the core sequence for SB binding, DNA fragments with mutations in the outer or inner DR were made by PCR followed by enzyme digestion. DNA fragments were end-labeled with [α³²P]-dCTP. Nucleoprotein complexes were formed in a buffer as described by Ivics et al., Cell, 1997;91:501-510. Reactions contained 100 picogram (pg) DNA probes, 1 microgram (μg) poly[dI:dC], and 1 microliter (μl) N123 in a total volume of 20 μl. After a 60 minutes incubation at 30° C., […] of loading dye containing 50% glycerol and bromophenol blue were added and the samples were loaded onto 4%-6% polyacrylamide gels, which were run for 2-3 hours at 120 volts. 4% gels were used for EMSA assays with triple-DR probes while 6% gels were used with double-DR probes. Competitor concentrations were as described in Ivics et al., Cell, 1997;91:501-510. Dried gels were exposed to the phosphor for 6-9 hours and imaged on a Storm 840 Imager (Molecular Dynamics).

In series [2] the target is T1, N123 (DNA-binding domain of Sleeping …). Description: EMSA; binding not affected.
From the text: as §1

The target is the same in series [3]. The experiment in a line: competition; weaker competitor than Li.
From the text: as §1
(§2) The initial step of SB transposition involves the specific binding of transposase to both ITRs of SB transposon. Two DRs in each ITR are required because deletion of one or the both severely reduces transposition (Izsvák et al., J. Mol. Biol., 2000;302:93-102). […]

For series [4] the target is unchanged. The experiment in a line: EMSA; still binds.
From the text: as §1

Series [5] shares this target. Description: competition; binds more tightly than Lo.
From the text: as §1, §2

B1: Lo(delta8-11) (dsDNA)
DNA 1: TACAGTTGAGGAAGTTTACATACACTTAAG
DNA 2: CTTAAGTGTATGTAAACTTCCTCAACTGTA
As to B1, the binding result in series [1] is given as “no binding”.

B2: Lo(S4-6) (dsDNA)
DNA 1: TACAGCCCAAGTCGGAAGTTTACATACACTTAAG
DNA 2: CTTAAGTGTATGTAAACTTCCGACTTGGGCTGTA
In the case of B2, in series [2], the binding result is “binds”.

B3: Lo(S27-29) (dsDNA)
DNA 1: TACAGTTGAAGTCGGAAGTTTACATACATGGAAG
DNA 2: CTTCCATGTATGTAAACTTCCGACTTCAACTGTA
Regarding B3, the binding result in series [1] is recorded as “no binding”.

B4: Lo(S28-30) (dsDNA)
DNA 1: TACAGTTGAAGTCGGAAGTTTACATACACGGGAG
DNA 2: CTCCCGTGTATGTAAACTTCCGACTTCAACTGTA
As for B4, in series [2], the binding result is “binds”.

B5: Lo(S10-12) (dsDNA)
DNA 1: TACAGTTGAAGAACGAAGTTTACATACACTTAAG
DNA 2: CTTAAGTGTATGTAAACTTCGTTCTTCAACTGTA
Regarding B5, the binding result in series [1] is on record as “no binding”.

B6: Lo (dsDNA)
DNA 1: TACAGTTGAAGTCGGAAGTTTACATACACTTAAG
DNA 2: CTTAAGTGTATGTAAACTTCCGACTTCAACTGTA
B6: the binding result in series [3] is given as “binds”.

B7: Lo(S3) (dsDNA)
DNA 1: TACAATTGAAGTCGGAAGTTTACATACACTTAAG
DNA 2: CTTAAGTGTATGTAAACTTCCGACTTCAATTGTA
Turning to B7, in series [2], the binding result was “binds”.

B8: Lo(S1,3) (dsDNA)
DNA 1: TAAAATTGAAGTCGGAAGTTTACATACACTTAAG
DNA 2: CTTAAGTGTATGTAAACTTCCGACTTCAATTTTA
As to B8, the binding result in series [2] is given as “binds”.

B9: Lo(S7-9) (dsDNA)
DNA 1: TACAGTTGCCCTCGGAAGTTTACATACACTTAAG
DNA 2: CTTAAGTGTATGTAAACTTCCGAGGGCAACTGTA
B9: in series [2], the binding result was “binds”.

B10: Li/Lo(H) (dsDNA)
DNA 1: TCCAGTGGGTCAGAAGTTTACATACACTTAAG
DNA 2: CTTAAGTGTATGTAAACTTCTGACCCACTGGA
modifications: [none]
Take B10: the binding result in series [4] was “binds”.

B11: Li (dsDNA)
DNA 1: TCCAGTGGGTCAGAAGTTTACATACACTAAGT
DNA 2: ACTTAGTGTATGTAAACTTCTGACCCACTGGA
In the case of B11, in series [5], the binding result is on record as “binds”.
